The values below come from article doi:10.1101/2021.01.07.425795 (bioRxiv, 2021).

Experiment in all cases: SEC
Series [1] deals with T1, ACAD9 (wild type, without a tag) (human, UniProt Q9H845 38-621).
T1 sequence (looked up): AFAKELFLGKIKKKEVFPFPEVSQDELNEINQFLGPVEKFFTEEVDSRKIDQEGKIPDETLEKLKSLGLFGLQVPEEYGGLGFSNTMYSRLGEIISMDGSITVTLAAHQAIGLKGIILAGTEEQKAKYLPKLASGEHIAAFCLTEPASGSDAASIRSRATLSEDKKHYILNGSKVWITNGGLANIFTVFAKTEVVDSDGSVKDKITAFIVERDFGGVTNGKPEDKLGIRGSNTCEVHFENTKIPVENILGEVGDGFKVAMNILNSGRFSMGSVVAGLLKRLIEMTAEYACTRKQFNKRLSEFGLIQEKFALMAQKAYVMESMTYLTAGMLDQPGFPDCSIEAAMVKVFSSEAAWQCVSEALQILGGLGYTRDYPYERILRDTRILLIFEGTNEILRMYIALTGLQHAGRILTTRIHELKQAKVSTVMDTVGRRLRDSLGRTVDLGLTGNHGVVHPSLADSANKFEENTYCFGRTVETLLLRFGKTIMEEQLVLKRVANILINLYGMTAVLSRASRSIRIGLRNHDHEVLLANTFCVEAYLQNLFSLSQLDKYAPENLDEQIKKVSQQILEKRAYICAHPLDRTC

Series [2] concerns the molecule itself.
The target in series [3] is T1, ACAD9 (wild type, without a tag). The source holds these as a separate data set.
Series [4] deals with T2, ACAD9 Arg469Trp (human, UniProt Q9H845 38-621, Arg469Trp).
T2 sequence (looked up): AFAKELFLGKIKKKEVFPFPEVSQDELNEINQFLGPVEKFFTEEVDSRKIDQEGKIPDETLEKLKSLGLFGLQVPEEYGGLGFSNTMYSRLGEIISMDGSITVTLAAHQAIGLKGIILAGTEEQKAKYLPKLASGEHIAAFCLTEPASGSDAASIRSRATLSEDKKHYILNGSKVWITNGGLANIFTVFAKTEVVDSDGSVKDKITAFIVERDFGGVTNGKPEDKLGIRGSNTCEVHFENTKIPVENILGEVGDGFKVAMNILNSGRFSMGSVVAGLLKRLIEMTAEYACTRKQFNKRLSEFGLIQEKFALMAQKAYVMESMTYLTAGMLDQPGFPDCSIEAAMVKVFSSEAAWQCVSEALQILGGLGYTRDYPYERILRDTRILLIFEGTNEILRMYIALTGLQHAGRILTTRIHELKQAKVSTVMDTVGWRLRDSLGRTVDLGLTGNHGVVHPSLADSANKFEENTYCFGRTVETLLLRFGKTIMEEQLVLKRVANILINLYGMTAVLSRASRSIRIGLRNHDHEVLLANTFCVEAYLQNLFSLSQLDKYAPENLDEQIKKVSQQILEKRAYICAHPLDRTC

Series [5] has as its target T3, ACAD9 Arg518His (human, UniProt Q9H845 38-621, Arg518His).
T3 sequence (looked up): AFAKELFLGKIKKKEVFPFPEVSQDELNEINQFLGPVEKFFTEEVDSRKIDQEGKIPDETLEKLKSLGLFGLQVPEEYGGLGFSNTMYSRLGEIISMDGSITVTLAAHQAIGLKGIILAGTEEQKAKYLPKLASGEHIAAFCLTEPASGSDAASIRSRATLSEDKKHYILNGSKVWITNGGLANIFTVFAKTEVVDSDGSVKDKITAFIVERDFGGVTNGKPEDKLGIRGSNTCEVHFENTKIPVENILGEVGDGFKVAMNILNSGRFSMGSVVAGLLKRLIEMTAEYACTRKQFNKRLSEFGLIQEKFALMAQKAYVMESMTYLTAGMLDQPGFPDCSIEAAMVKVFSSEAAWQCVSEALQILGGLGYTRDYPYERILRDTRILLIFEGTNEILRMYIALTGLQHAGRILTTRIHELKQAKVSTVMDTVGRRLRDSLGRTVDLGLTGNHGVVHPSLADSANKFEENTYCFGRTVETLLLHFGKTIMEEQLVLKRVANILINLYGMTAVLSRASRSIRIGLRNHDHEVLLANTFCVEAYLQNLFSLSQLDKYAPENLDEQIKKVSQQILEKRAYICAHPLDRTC

Series [6] has as its target T4, ACAD9 Glu426Gln (human, UniProt Q9H845 38-621, Glu426Gln).
T4 sequence (looked up): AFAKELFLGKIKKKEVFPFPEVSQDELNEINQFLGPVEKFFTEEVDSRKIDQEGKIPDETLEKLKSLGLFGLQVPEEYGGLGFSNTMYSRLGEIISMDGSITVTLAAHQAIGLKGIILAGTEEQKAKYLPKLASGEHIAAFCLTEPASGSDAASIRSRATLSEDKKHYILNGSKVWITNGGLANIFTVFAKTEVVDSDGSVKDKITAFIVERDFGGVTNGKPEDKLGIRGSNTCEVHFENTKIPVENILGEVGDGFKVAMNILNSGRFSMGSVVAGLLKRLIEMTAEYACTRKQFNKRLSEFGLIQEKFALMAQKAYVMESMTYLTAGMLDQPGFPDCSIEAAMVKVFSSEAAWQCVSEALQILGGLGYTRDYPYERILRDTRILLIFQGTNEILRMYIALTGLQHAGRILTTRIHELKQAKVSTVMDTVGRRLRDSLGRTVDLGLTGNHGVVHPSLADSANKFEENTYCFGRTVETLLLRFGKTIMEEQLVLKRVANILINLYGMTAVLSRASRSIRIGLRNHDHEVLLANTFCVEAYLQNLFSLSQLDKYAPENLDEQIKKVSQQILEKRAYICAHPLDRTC

Where two headings read alike, the source gives them in different places.

B1: His6-ECSIT (natural protein, human, UniProt Q9BQ95 49-431, looked up)
chain: SSEQSLVPSPPEPRQRPTKALVPFEDLFGQAPGGERDKASFLQTVQKFAEHSVRKRGHIDFIYLALRKMREYGVERDLAVYNQLLNIFPKEVFRPRNIIQRIFVHYPRQQECGIAVLEQMENHGVMPNKETEFLLIQIFGRKSYPMLKLVRLKLWFPRFMNVNPFPVPRDLPQDPVELAMFGLRHMEPDLSARVTIYQVPLPKDSTGAADPPQPHIVGIQSPDQQAALARHNPARPVFVEGPFSLWLRNKCVYYHILRADLLPPEEREVEETPEEWNLYYPMQLDLEYVRSGWDNYEFDINEVEEGPVFAMCMAGAHDQATMAKWIQGLQETNPTLAQIPVVFRLAGSTRELQTSSAGLEEPPLPEDHQEEDDNLQRQQQGQS
In general, stoichiometry N refers to a count of units in the complex or per binding partner. On to B1, for which the “stoichiometry N” value was 1 ECSIT chains per ACAD9 chain (one dimer with one dimer) in series [1], 2 in series [2] and 1 mol/mol in series [3]. The binding result in series [4], in series [5] and in series [6] was “binds” in each case.
